Results on six molecules are retold here after PMC3499988 (Biochemistry, 2011).

Read-outs that look alike come from different tables or passages of the source.

Common to all, as to assay: SPR
In experiment [1] the target is T1, HIV-1 YU-2 gp120 (HIV-1 (YU-2), UniProt P35961).
Experiment [2] has as its target T2, HIV-1 HXBc2 gp120 (HIV-1 (HXBc2), UniProt P04578).
For experiment [3], the target named is T1, HIV-1 YU-2 gp120. The source holds these as a separate data set.
Experiment [4] has as its target T2, HIV-1 HXBc2 gp120. This is another data set of the same source.
Experiment [5] has as its target T1, HIV-1 YU-2 gp120. The source holds these as a separate data set.
Experiment [6] addresses T2, HIV-1 HXBc2 gp120. This is another data set of the same source.
Experiment [7] has as its target T1, HIV-1 YU-2 gp120. This is another data set of the same source.

As usually defined, the IC50 is the midpoint of a concentration-inhibition curve. In general, Kd refers to the concentration at which binding is half-saturated. High values mean a looser complex, low ones a tighter complex. One may read the koff as a measure of how fast the partners let go of each other. By kon is commonly meant the second-order rate constant of association. A lower kon goes with slow association.

B1: Fab m18 (wild type) (Fab, V domains shown)
VH: VQLLESGPGVVKPSETLSLTCTVSGASVNNYYWTWVRQPPGKGLEWIGNVYDSGDTNYNPSLSSRLSLSMDTSKNQFSLRLSSVTAADTATYYCARYHRHFIRGPLSFDYWGRGTLVTVSS
VL: LQMTQSPSFLSASVGDRVSITCRASQDIQKFLAWYQLTPGDAPKLLMYSASTLQSGVPSRFSGSGSGTEFTLTISGLQPEDFATYYCQHLKRYPYTFGQGTKLEIS
Take B1: the concentration for half-maximal inhibition (IC50) turned out to be 0.033 ± 0.0036 µM in the experiment with HIV-1 YU-2 gp120 [1], 0.0569 ± 0.013 µM with HIV-1 HXBc2 gp120 [2], 0.0361 ± 0.0129 µM with HIV-1 HXBc2 gp120 [4] and 0.036 ± 0.0012 µM with HIV-1 YU-2 gp120 [5]. Also, the figures for the Kd with HIV-1 YU-2 gp120 [3] and with HIV-1 HXBc2 gp120 [6] were 0.0014 µM and 0.0043 µM, respectively. The figures for the koff with HIV-1 YU-2 gp120 [3] and with HIV-1 HXBc2 gp120 [6] were 9.8e-05 s⁻¹ and 0.00022 ± 0.9 s⁻¹, respectively. Further, the kon with HIV-1 YU-2 gp120 [3] worked out at 69000 ± 0.3 M⁻¹ s⁻¹; in the experiment with HIV-1 HXBc2 gp120 [6], 52000 ± 2.2 M⁻¹ s⁻¹.

B2: Fab m18 F99A (HCDR3) (Fab, V domains shown)
VH: VQLLESGPGVVKPSETLSLTCTVSGASVNNYYWTWVRQPPGKGLEWIGNVYDSGDTNYNPSLSSRLSLSMDTSKNQFSLRLSSVTAADTATYYCARYHRHAIRGPLSFDYWGRGTLVTVSS
VL: LQMTQSPSFLSASVGDRVSITCRASQDIQKFLAWYQLTPGDAPKLLMYSASTLQSGVPSRFSGSGSGTEFTLTISGLQPEDFATYYCQHLKRYPYTFGQGTKLEIS
Turning to B2, the binding result with HIV-1 YU-2 gp120 [7] is on record as “binds”. Further, the IC50 with HIV-1 YU-2 gp120 [1] was greater than 0.5 µM; in the experiment with HIV-1 HXBc2 gp120 [2] it was 0.0695 ± 0.0037 µM; with HIV-1 HXBc2 gp120 [4], 0.0582 ± 0.0043 µM; in the experiment with HIV-1 YU-2 gp120 [5] it was greater than 0.5 µM. The Kd with HIV-1 YU-2 gp120 [3] worked out at 0.0059 µM; with HIV-1 HXBc2 gp120 [6], 0.0013 µM. Also, the results for the koff in the experiment with HIV-1 YU-2 gp120 [3] and with HIV-1 HXBc2 gp120 [6] were 0.00026 ± 1.5 s⁻¹ and 0.00013 ± 0.1 s⁻¹, respectively. In addition, the results for the kon in the experiment with HIV-1 YU-2 gp120 [3] and with HIV-1 HXBc2 gp120 [6] were 45000 ± 2.5 M⁻¹ s⁻¹ and 100000 ± 0.02 M⁻¹ s⁻¹, respectively.

B3: Fab m18 F99Y (HCDR3) (Fab, V domains shown)
VH: VQLLESGPGVVKPSETLSLTCTVSGASVNNYYWTWVRQPPGKGLEWIGNVYDSGDTNYNPSLSSRLSLSMDTSKNQFSLRLSSVTAADTATYYCARYHRHYIRGPLSFDYWGRGTLVTVSS
VL: LQMTQSPSFLSASVGDRVSITCRASQDIQKFLAWYQLTPGDAPKLLMYSASTLQSGVPSRFSGSGSGTEFTLTISGLQPEDFATYYCQHLKRYPYTFGQGTKLEIS
As to B3, the IC50 with HIV-1 YU-2 gp120 [1] was 0.0537 ± 0.0015 µM; with HIV-1 HXBc2 gp120 [2], 0.0667 ± 0.0061 µM; in the experiment with HIV-1 HXBc2 gp120 [4] it was 0.0628 ± 0.0123 µM; with HIV-1 YU-2 gp120 [5], 0.0753 ± 0.0206 µM. Further, the Kd was 0.0011 µM in the experiment with HIV-1 YU-2 gp120 [3] and 0.0009 µM in the experiment with HIV-1 HXBc2 gp120 [6]. The results for the koff with HIV-1 YU-2 gp120 [3] and with HIV-1 HXBc2 gp120 [6] were 0.00011 ± 0.9 s⁻¹ and 9.2e-05 s⁻¹, respectively. Moreover, the values for the kon with HIV-1 YU-2 gp120 [3] and with HIV-1 HXBc2 gp120 [6] were 94000 ± 2.5 M⁻¹ s⁻¹ and 100000 ± 0.03 M⁻¹ s⁻¹, respectively.

B4: Fab m18 S52A (LCDR2) (Fab, V domains shown)
VH: VQLLESGPGVVKPSETLSLTCTVSGASVNNYYWTWVRQPPGKGLEWIGNVYDSGDTNYNPSLSSRLSLSMDTSKNQFSLRLSSVTAADTATYYCARYHRHFIRGPLSFDYWGRGTLVTVSS
VL: LQMTQSPSFLSASVGDRVSITCRASQDIQKFLAWYQLTPGDAPKLLMYSAATLQSGVPSRFSGSGSGTEFTLTISGLQPEDFATYYCQHLKRYPYTFGQGTKLEIS
For B4, the IC50 in the experiment with HIV-1 YU-2 gp120 [1] is no less than 0.5 µM; with HIV-1 HXBc2 gp120 [2], greater than 0.36 µM; with HIV-1 HXBc2 gp120 [4] it was greater than 0.36 µM; in the experiment with HIV-1 YU-2 gp120 [5], greater than 0.5 µM. Also, the values for the Kd with HIV-1 YU-2 gp120 [3] and with HIV-1 HXBc2 gp120 [6] were 0.0047 µM and 0.0006 µM, respectively. Besides, the koff with HIV-1 YU-2 gp120 [3] turned out to be 8.1e-05 s⁻¹; in the experiment with HIV-1 HXBc2 gp120 [6], 2e-05 s⁻¹. Moreover, the kon in the experiment with HIV-1 YU-2 gp120 [3] was found to be 17000 ± 0.9 M⁻¹ s⁻¹; in the experiment with HIV-1 HXBc2 gp120 [6], 35000 ± 2.1 M⁻¹ s⁻¹.

B5: Fab m18 K31A (LCDR1) (Fab, V domains shown)
VH: VQLLESGPGVVKPSETLSLTCTVSGASVNNYYWTWVRQPPGKGLEWIGNVYDSGDTNYNPSLSSRLSLSMDTSKNQFSLRLSSVTAADTATYYCARYHRHFIRGPLSFDYWGRGTLVTVSS
VL: LQMTQSPSFLSASVGDRVSITCRASQDIQAFLAWYQLTPGDAPKLLMYSASTLQSGVPSRFSGSGSGTEFTLTISGLQPEDFATYYCQHLKRYPYTFGQGTKLEIS
In the case of B5, the half-inhibitory concentration (IC50) with HIV-1 YU-2 gp120 [1], in the experiment with HIV-1 HXBc2 gp120 [2], with HIV-1 HXBc2 gp120 [4] and with HIV-1 YU-2 gp120 [5] was greater than 0.5 µM throughout. Besides, the equilibrium dissociation constant (Kd) was found to be 0.0031 µM with HIV-1 YU-2 gp120 [3] and 0.0187 µM with HIV-1 HXBc2 gp120 [6]. Also, the koff in the experiment with HIV-1 YU-2 gp120 [3] was determined as 8.9e-05 s⁻¹; with HIV-1 HXBc2 gp120 [6], 0.00031 ± 1.1 s⁻¹. Also, the kon in the experiment with HIV-1 YU-2 gp120 [3] turned out to be 29000 ± 0.4 M⁻¹ s⁻¹; with HIV-1 HXBc2 gp120 [6], 17000 ± 0.5 M⁻¹ s⁻¹.

B6: Fab m18 I100A (HCDR3) (Fab, V domains shown)
VH: VQLLESGPGVVKPSETLSLTCTVSGASVNNYYWTWVRQPPGKGLEWIGNVYDSGDTNYNPSLSSRLSLSMDTSKNQFSLRLSSVTAADTATYYCARYHRHFARGPLSFDYWGRGTLVTVSS
VL: LQMTQSPSFLSASVGDRVSITCRASQDIQKFLAWYQLTPGDAPKLLMYSASTLQSGVPSRFSGSGSGTEFTLTISGLQPEDFATYYCQHLKRYPYTFGQGTKLEIS
As for B6, the IC50 in the experiment with HIV-1 YU-2 gp120 [1], with HIV-1 HXBc2 gp120 [2], with HIV-1 HXBc2 gp120 [4] and in the experiment with HIV-1 YU-2 gp120 [5] was greater than 0.5 µM in each case. For the same molecule, the Kd was determined as 0.0131 µM with HIV-1 YU-2 gp120 [3] and 0.0028 µM in the experiment with HIV-1 HXBc2 gp120 [6]. For the same molecule, the koff stood at 0.00036 ± 1.4 s⁻¹ in the experiment with HIV-1 YU-2 gp120 [3] and 4.6e-05 s⁻¹ with HIV-1 HXBc2 gp120 [6]. For the same molecule, the kon was 27000 ± 1.3 M⁻¹ s⁻¹ with HIV-1 YU-2 gp120 [3] and 17000 ± 0.07 M⁻¹ s⁻¹ with HIV-1 HXBc2 gp120 [6].
